Data as given in KR20220022226A (dated 2022).

T1: GST 택(tag)이 달린 IL-33 (human, UniProt O95760 112-270)
T1 construct: also called GST-IL-33; 재조합 GST-IL-33; not shown: Glutathione S-transferase (GST) tag; It is N-terminal, since stop codons pla
T1 sequence: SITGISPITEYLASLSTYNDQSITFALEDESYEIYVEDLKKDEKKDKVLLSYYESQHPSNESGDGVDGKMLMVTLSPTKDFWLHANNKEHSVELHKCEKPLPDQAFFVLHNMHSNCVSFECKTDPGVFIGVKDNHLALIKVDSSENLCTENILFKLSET


Experiments:
BSA = biological target: T2, BSA (UniProt P02769 25-607); assay: immunoblot, C2_2E12 as primary antibody, anti-HA-HRP as secondary
T2 construct: Unrelated control protein in the immunoblot

IL-1b = IL-1b (UniProt P01584 117-269); assay: as above
IL-6 = IL-6 (UniProt P05231 30-212); assay: as above
GST 택(tag)이 달린 IL-33 = biological target: T1, GST 택(tag)이 달린 IL-33; assay: ELISA, antigen fixed and scFv titrated

T2 sequence (P02769 25-607 limits assumed): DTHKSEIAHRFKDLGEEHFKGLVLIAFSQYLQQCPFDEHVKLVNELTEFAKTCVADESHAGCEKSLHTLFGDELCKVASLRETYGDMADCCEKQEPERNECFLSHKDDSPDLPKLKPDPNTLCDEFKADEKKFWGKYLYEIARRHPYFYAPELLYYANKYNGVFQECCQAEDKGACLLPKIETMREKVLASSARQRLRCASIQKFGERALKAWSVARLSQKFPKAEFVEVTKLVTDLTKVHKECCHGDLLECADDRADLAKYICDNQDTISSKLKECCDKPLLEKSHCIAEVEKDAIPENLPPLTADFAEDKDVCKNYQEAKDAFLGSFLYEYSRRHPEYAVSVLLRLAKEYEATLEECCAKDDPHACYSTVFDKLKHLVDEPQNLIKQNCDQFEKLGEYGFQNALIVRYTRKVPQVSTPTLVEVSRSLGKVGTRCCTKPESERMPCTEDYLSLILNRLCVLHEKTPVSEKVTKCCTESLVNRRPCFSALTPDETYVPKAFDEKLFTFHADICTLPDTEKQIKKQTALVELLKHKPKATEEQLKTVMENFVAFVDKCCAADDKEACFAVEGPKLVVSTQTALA

Row | Binder | binding result (BSA) | binding result (IL-1b) | binding result (IL-6) | Kd (GST 택(tag)이 달린 IL-33) [nM]
1 | C2_2E12 (scFv, The recombinant scFv was purified on Ni-NTA agarose and detected with anti-HA-HRP, so the protein tested probably carried His and HA tags; also called Anti-IL-33 scFv C2_2E12; 재조합 C2_2E12 scFv 항체) scFv: EVQLLESGGGLVQPGGSLRLSCAASGFTFSSYYMSWVRQAPGKGLEWVSAISPGSSNKYYADSVKGRFTISRDNSKNTLYLQMNSLRAEDTAVYYCARLTLSFDYWGQGTPVTVSSGGGGSGGGGSGGGGSQSVLTQPPSASGTPGQRVTISCSGSSSNIGSNDVSWYQQLPGTAPKLLIYADSKRPSGVPDRFSGSKSGTSASLAISGLRSEDEADYYCASWDSSLSAYVFGGGTKLTVLG | no binding (tested: 0.5 mg/ml, 1:100 희석) | no binding (tested: 0.5 mg/ml, 1:100 희석) | no binding (tested: 0.5 mg/ml, 1:100 희석) | 28
2 | C2_2H5 (scFv, scFv clone from a synthetic human scFv phage library; also called Anti-IL-33 scFv C2_2H5) scFv: EVQLLESGGGLVQPGGSLRLSCAASGFTFSSYYMSWVRQAPGKGLEWVSAISPGSSNKYYADSVKGQFTISRDNSKNTLYLQMNSLRAEDTAVYYCAKLSQSFDYWGQGTLVTVSSGGGGSGGGGSGGSGSQSVLTQPPSASGTPGQRVTISCTGSSSNIGNNGISWYQQLPGTAPKLLIYDNSHRPSGVPDRFSGSKSGTSASLAISGLRSEDETDYYCASWDSSLSGYVFGGGTKLTVLGQAGQHHHHHHGAYPYDVPDYAS |  |  |  | 31
3 | C2_1D5 (scFv, scFv clone from a synthetic human scFv phage library; also called Anti-IL-33 scFv C2_1D5) scFv: EVQLLESGGGLVQPGGSLRLSCAASGFTFSSYYMSWVRQAPGKGLEWVSAISPGSSNKYYADSVKGRFTISRDNSKNTLYLQMNSLRAEDTAVYYCARLLSAFDYWGQGTLVTVSSGGGGSGGGGSGGGGSQSVLTQPPSASGTPGQRVTISCSGSSSNIGSNDVSWYQQLPGTAPKLLIYSDSNRPSGVPDRFSGSKSGTSASLAISGLRSEDEADYYCGAWDSSLSGYVFGGGTKLTVLGQAGQHHHHHHGAYPYDVPDYAS |  |  |  | 36
4 | C1_1E1 (scFv, scFv clone from a synthetic human scFv phage library; also called Anti-IL-33 scFv C1_1E1) scFv: EVQLLESGGGLVQPGGSLRLSCAASGFTFSSYYMSWVRQAPGKGLEWVSAISPGSSNKYYADSVKGRFTISRDNSKNTLYLQMNSLRAEDTAVYYCAKLTSAFDYWGQGTLVTVSSGGGDSGGGGSGGGGSQSVLTQPPSASGTPGQRVTISCTGSSSNIGSNDVTWYQQLPGTAPKLLIYSDNKRPSGVPDRFSGSKSGTSASLAISGLRSEEEADYYCGAWDSSLSGYVFGGGTKLTVLGQAGQHHHHHHGAYPYDVPDYAS |  |  |  | 48
5 | C2_2A10 (scFv, scFv clone from a synthetic human scFv phage library; also called Anti-IL-33 scFv C2_2A10) scFv: EVQLLESGGGLVQPGGSLRLSCAASGFTFSSYYMSWVRQAPGKGLEWVSAISPGSSNKYYADSVKGRFTISRDNSKNTLYLQMNSLGAEDTAVYYCAKLLTGFDYWGQGTLVTVSSGGGGSGGGGSGGGGSQSVLTQPPSASGTPGQRVTISCSGSSSNIGNNAVSWYQQLPGTAPKLLIYDDNHRPSGVPDRFSGSKSGTSASLAISGLRSEDEADYYCGTWDSSLSAYVFGGGTKLTVLGQAGQHHHHHHGAYPYDVPDYAS |  |  |  | 57
6 | C2_2E1 (scFv, scFv clone from a synthetic human scFv phage library; also called Anti-IL-33 scFv C2_2E1) scFv: EVQLLESGGGLVQPGGSLRLSCAASGFTFSSYYMSWVRQAPGRGLEWVSAISPGSSNKYYADSVKGRFTISRDNSKNTLYLQMNSLRAEDTAVYYCARMTSSFDYWGQGTLVTVSSGGGGSGGGGSGGGGSQSVLTQPPSASGTPGQRVTISCSGSSSNIGNNDVSWYQQLPGTAPKLLIYSDSQRPSGVPDRFSGSKSGTSASLAISGLRSEDEADYYCGSWDYSLSAYVFGGGTKLTVLGQAGQHHHHHHGAYPYDVPDYAS |  |  |  | 35
